Patent publication US20170233497A1
Like-named read-outs stand apart in the source and are kept apart here.

Legend:
[1] = target: recombinant extracellular domain of EGFR (UniProt P00533); assay: EGFR-coat/anti-7D8-idiotype sandwich ELISA; mixture after 25 mM 2-MEA, 90 min, 37 °C; axis = total antibody of the mixture
[2] = target: recombinant extracellular domain of EGFR (UniProt P00533); assay: as above; remark: listed apart in the source
[3] = target: mouse FcRn (neonatal Fc receptor), biotinylated (mouse) (UniProt Q61559); assay: FcRn ELISA at pH 6.0

| EC50 (read off the curve) [1] [ng/mL] | EC50 (read off the curve) [2] [ng/mL] | fold higher binding efficiency to mouse FcRn compared to human FcRn [3] [fold] | Substance |
| --- | --- | --- | --- |
| 300 | – | – | IgG1-2F8-F405L+IgG4-7D8 (bispecific antibody) |
| – | 400 | – | IgG4-2F8+IgG4-7D8 (deglyc) (bispecific antibody) |
| – | – | 3 | bispecific IgG1 generated from IgG1-2F8-ITL and IgG1-7D8-K409R (bispecific antibody) |
| 400 | 300 | – | IgG4-2F8 x IgG4-7D8 (bispecific antibody) |
| 300 | – | – | IgG4-7D8-CPPC x IgG4-2F8 (bispecific antibody) |
| – | – | 3 | IgG1-2F8-ITL (antibody) |
| 300 | – | – | IgG1-2F8-F405L+IgG4-7D8-CPPC (bispecific antibody) |
